Legend:
Assay in all cases: filter
[1] = system: T1, GST-MBNL1-41 full length (Homo sapiens), Q9NR56-5; details: GST has no significant influence on binding; same buffer
T1 sequence: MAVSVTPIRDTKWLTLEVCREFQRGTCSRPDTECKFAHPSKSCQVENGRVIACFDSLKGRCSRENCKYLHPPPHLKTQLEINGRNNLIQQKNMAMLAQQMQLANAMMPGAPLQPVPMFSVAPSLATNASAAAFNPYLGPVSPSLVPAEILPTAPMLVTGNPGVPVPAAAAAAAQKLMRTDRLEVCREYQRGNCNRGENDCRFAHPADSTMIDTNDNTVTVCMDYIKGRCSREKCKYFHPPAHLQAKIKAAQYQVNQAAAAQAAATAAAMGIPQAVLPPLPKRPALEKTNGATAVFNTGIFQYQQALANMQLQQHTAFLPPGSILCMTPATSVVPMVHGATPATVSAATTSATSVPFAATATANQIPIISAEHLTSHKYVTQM

[2] = system: T2, GST-MBNL1-41-del105 deletion of C-terminal 105 aa (all four zinc fingers kept) (Homo sapiens), Q9NR56-5; details: C-terminal deletion has no significant influence on binding; same buffer
T2 sequence: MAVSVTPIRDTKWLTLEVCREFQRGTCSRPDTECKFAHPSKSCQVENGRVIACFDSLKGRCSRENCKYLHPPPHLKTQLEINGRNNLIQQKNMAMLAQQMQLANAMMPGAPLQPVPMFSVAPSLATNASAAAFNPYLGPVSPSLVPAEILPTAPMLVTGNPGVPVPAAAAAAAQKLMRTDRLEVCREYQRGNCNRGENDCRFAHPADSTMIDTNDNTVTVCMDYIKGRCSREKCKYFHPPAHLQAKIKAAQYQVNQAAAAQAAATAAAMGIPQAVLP

[3] = system: T3, MBNL1-41 full length, GST cleaved (Homo sapiens), Q9NR56-5; details: nitrocellulose filter; 50 mM Tris pH 8.0, 50 mM NaCl, 50 mM KCl, 1 mM Mg, 0.1 mM DTT; value stated for all forms tested
T3 sequence: T1 sequence

[4] = target: T4, MBNL1-42 (Homo sapiens) (UniProt Q9NR56); details: stated collectively for 41 and 42 kD isoforms
T4 sequence: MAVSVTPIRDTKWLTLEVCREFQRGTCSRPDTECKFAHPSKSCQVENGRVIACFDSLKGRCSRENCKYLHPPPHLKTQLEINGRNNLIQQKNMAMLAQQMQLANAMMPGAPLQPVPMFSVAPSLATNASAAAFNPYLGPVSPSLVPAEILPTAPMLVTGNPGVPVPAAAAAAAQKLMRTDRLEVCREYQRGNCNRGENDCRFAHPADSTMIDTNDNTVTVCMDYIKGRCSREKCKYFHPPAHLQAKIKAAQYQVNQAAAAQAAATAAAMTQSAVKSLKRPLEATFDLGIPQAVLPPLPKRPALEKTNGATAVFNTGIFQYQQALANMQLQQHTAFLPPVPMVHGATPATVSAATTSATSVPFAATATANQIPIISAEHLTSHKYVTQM

Measured: Kd

CUG [poly(CUG)109]
10 nM: all assays above

From patent US20100190689
